This is an account of results in patent US7521540B2, “CYR61 compositions and methods” (Munin Corporation, priority 1996, dated 2009).

Assay type in all cases: cell-based
The subject of test [1] is Human Microvascular Endothelial Cells. Nature of the test: Endothelial cell migration, inverted modified Boyden chamber. The method, then: In an alternative in vitro assay for angiogenic activity, an assay for endothelial cell migration was developed. […] Primary Human Microvascular Endothelial Cells (HMVEC PO51, Clonetics, San Diego, Calif.) were maintained in DME with 10% donor calf serum (Flow Laboratories, McLean, Va.) and 100 μg/ml endothelial celi mitogen (Biomedical Technologies Inc., Stoughton, Mass.). The cells were used between passages 10 and 15. To measure migration, cells were starved for 24 hours in DME containing 0.1% BSA, harvested, resuspended in DME with 0.1% BSA, and plated at 1.75×10^4 cells/well on the lower surface of a gelatinized 0.5 μm filter (Nucleopore Corporation, Pleasanton. Calif.) in an inverted modified Boyden chamber. After 1-2 hours at 37° C., during which time the cells were allowed to adhere to the filter, the chamber was reverted to its normal position. To the top well of separate chambers, basic Fibroblast Growth Factor (a positive control), Cyr61, or a negative control solution (conditioned medium known to lack chemoattractants or DME plus BSA, see below) was added at concentrations ranging from 10 ng/ml to 10 μg/ml. Chambers were then incubated for 3-4 hours at 37° C. to allow migration. Chambers were disassembled, membranes fixed and stained, and the number of cells that had migrated to the top of the filter in 3 high-powered fields was determined. Tolsma et al., J. Cell. Biol. 122:497-511 (1993) (incorporated by reference), and references cited therein. DME with 0.1% BSA was used as a negative control and either bFGF (10 ng/ml) or conditioned media from angiogenic hamster cell lines (20 μg/ml total protein) were used as positive controls. Rastinejad et al., Cell 56:345-355 (1989). Each sample was tested in quadruplicate (test compound such as Cyr61, positive control, conditioned medium as a negative control, and DME plus BSA as a negative control) in a single experiment; experiments were repeated at least twice.
To allow comparison of experiments performed on different days, migration data is reported as the percent of maximum migration towards the positive control, calculated after subtraction of background migration observed in the presence of DME plus BSA. […] Very high concentrations of thrombospondin (TSP) caused endothelial cells to detach from the membrane. Detachment was detected by counting cells on the lower face of the membrane. When cell loss exceeded 10%, the number of migrated cells was corrected for this loss. […] At 10 ng/ml, Cyr61 induced an average of 64 cells to migrate per three high-powered fields examined.

The test system of test [2] is primary human foreskin fibroblasts. Nature of the test: Cyr61-regulated gene expression (multi-gene blot, Northern). The method, then:
Purified, soluble, recombinant Cyr61 protein was added to cultures of primary human foreskin fibroblasts for 24 hours. From these cells, mRNA was isolated for preparation of probes to hybridize to a multi-gene blot (Clontech Atlas Human Array 1.2 cat no. 7850-1) containing about 650 genes. The levels of expression of these genes in Cyr61-treated cells were compared to that of control cells. […] These findings have been confirmed by Northern blot analysis showing increases or decreases of the mRNAs in question in Cyr61-treated cells. A time course of expression changes has been established. In particular, by 6 hours after its addition, Cyr61 has induced expression of VEGF-A mRNA and the induction is still evident at 12 and 24 hours post-addition. Also at 12 and 24 hours post-addition, Cyr61 has induced expression of VEGF-A polypeptide. With respect to VEGF-C, induction of mRNA is clearly evident 12 hours after addition of Cyr61 and the induction persists at least through 24 hours post-addition. Cyr61 is expected to induce the expression of VEGF-C polypeptide with similar kinetics.

For a further test, the system named is macrophages. Nature of the test: Macrophage binding, antibody inhibition studies. An excerpt:
It is also expected that Cyr61 will promote the migration of macrophages, thus serving a role in attracting and retaining macrophages at the site of a wound. Consequently, Cyr61 is expected to play a role in the inflammatory response of mammals, and modulation of Cyr61 activity is expected to influence the inflammatory response.

Test [3] has as its system 1064SK primary human foreskin fibroblasts. Nature of the test: Fibroblast adhesion assay (methylene blue, A620). In outline: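 Fibroblasts adhered under serum-free conditions for 30 min at 37 °C to wells coated with Cyr61 (0.5–5.0 μg/ml), then were fixed and methylene blue-stained. Inhibition tested with 2 mM GRGDSP/GRGESP, anti-α5 or anti-αV antibodies (40 μg/ml, 30 min rt pre-incubation), JBIA anti-β1 (50 μg/ml), divalent cations; means of triplicates.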

B1: Cyr61: Cysteine-rich ECM signaling protein; murine sequence SEQ ID NO:2, recombinant from Baculovirus-infected Sf9 cells (protein, listed as Mus musculus)
chain: MSSSTFRTLAVAVTLLHLTRLALSTCPAACHCPLEAPKCAPGVGLVRDGCGCCKVCAKQLNEDCSKTQPCDHTKGLECNFGASSTALKGICRAQSEGRPCEYNSRIYQNGESFQPNCKHQCTCIDGAVGCIPLCPQELSLPNLGCPNPRLVKVSGQCCEEWVCDEDSIKDSLDDQDDLLGLDASEVELTRNNELIAIGKGSSLKRLPVFGTEPRVLFNPLHAHGQKCIVQTTSWSQCSKSCGTGISTRVTNDNPECRLVKETRICEVRPCGQPVYSSLKKGKKCSKTKKSPEPVRFTYAGCSSVKKYRPKYCGSCVDGRCCTPLQTRTVKMRFRCEDGEMFSKNVMMIQSCKCNYNCPHPNEASFRLYSLFNDIHKFRD
B1: the “migrated cells per three high-powered fields” value in test [1] (10 ng/ml) is recorded as 64 cells; in test [1] (100 ng/ml), “approximately 72 cells”; in test [1] (1 μg/ml), 87 cells; in test [1] (10 μg/ml), “approximately 57 cells”; in test [1] (approximately 7 μg/ml), “about 61 cells”. Also, the “time after addition at which VEGF-A mRNA is induced” value in test [2] is no more than 6 h. Also, the “time after addition at which VEGF-C mRNA induction is clearly evident” value in test [2] stood at 12 h. For the same molecule, in test [2] (soluble Cyr61, 24 hours), the “expression of angiogenic molecules” value was “induction of the angiogenic molecules VEGF1 and VEGF3”. Also, the “expression of inflammation-related cytokines” value in test [2] (soluble Cyr61, 24 hours) was “induction of the inflammation-related cytokines IL-1 and IL-6”. Further, the “expression of matrix degrading enzymes” value in test [2] (soluble Cyr61, 24 hours) is “upregulation of matrix degrading enzymes including MMP1, MMP3, and uPA”. For the same molecule, in test [2] (soluble Cyr61, 24 hours), the “expression of matrix protein genes” value is recorded as “downregulation of matrix protein genes such as the type I collagen chain gene”. Further, in the test on macrophages, the “binding to macrophages” value is “binds to macrophages via yet another integrin, the αMβ2 integrin”. The “coating concentration at which maximal adhesion was reached” value in test [3] is 1 µg/mL. In addition, in test [3] (anti-α6 20 μg/ml), the “inhibition by anti-α6 antibody of binding mediated by the coated protein” value is recorded as 78%. Also, the “1064SK adhesion, absorbance” value in test [3] (coating 0.5 μg/ml) was “about 0.3 A620”; in test [3] (coating 1-5 μg/ml) it was 0.45-0.55 A620. Moreover, the “support of 1064SK fibroblast adhesion” value in test [3] (protein coated on wells) is “dose-dependent and saturable”.
